Source: paper PMC6561087 (Nature, 2019)
Each block holds one binder with its values, some of them ahead of it.

Legend:
[1] = target: 2:2 IFNγ–IFNγR1 intermediate complex (wild type), formed on the SPR chip (UniProt P15260); assay: SPR
[2] = target: T1, IFNγR1, wild type, recombinant soluble receptor captured on the SPR chip (UniProt P15260 18-245); assay: SPR
T1 sequence (looked up): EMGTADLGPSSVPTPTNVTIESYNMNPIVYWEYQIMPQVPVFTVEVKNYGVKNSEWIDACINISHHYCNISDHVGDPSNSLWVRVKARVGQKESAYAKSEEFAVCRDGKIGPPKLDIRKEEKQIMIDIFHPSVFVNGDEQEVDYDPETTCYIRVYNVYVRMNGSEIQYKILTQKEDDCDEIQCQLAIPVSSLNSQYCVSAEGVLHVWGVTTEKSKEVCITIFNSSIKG

Kd [1]: 5 µM
B1: IFNγR2, wild type, recombinant soluble receptor (receptor)
chain: SQLPAPQHPKIRLYNAEQVLSWEPVALSNSTRPVVYQVQFKYTDSKWFTADIMSIGVNCTQITATECDFTAASPSAGFPMDFNVTLRLRAELGALHSAWVTMPWFQHYRNVTVGPPENIEVTPGEGSLIIRFSSPFDIADTSTAFFCYYVHYWEKGGIQQVKGPFRSNSISLDNLKPSRVYCLQVQAQLLWNKSNIFRVGHLSNISCYETMADASTELQQ

binding result [2]: binds
B2: IFNγ(K74A/E75Y/N83R) triple mutant (ligand)
chain: QDPYVKEAENLKKYFNAGHSDVADNGTLFLGILKNWKEESDRKIMQSQIVSFYFKLFKNFKDDQSIQKSVETIAYDMNVKFFRSNKKKRDDFEKLTNYSVTDLNVQRKAIHELIQVMAELSPAAKTGKRKRSQ
